# Measurements reported in patent US20210171652A1 (University of Pennsylvania, published 2021).
# Residue numbers refer to the chain shown, from its start.
# B1: KP2-17 Fab/phage clone (anti-Band 3, Wrb) (Fab, V domains shown)
# VH: EVQLLESGPGLVKPSETLSLTCAVSGYSISSGYGWTWIRQPPGKGLEWIGYIGGSRGNANYNPSLKSRVTISKDTSKNQFSLKLTSVTAADTAVYYCARDGGYGERYLEFWGQGALVTVSS
# VL: AAELTQSPAFRSVTLKEKVTITCQASQSIGSSLHWYQQKPDQSPKLLIKFASQSISGVPSRFSGSGYGTDFTLTINSLEAEDAATYYCHQSSSFPWTFGQGTKVEIK
# B2: KP2-07 Fab/phage clone (anti-Band 3, Wrb) (Fab, V domains shown)
# VH: EVQLLESGPGLVKPSETLSLTCAVSGDSISSGYGWHWIRQVPGRGLEWIGSIGGSRGTTNYNPSLKSRVTISEDTSKNQFSLSLRSVSAADTAVYFCARDSGYSFRYFDFWGQGVLVTVSS
# VL: ELVMTQSPATLSLSPGETATLSCRASQSVGSNLAWYQQKPGQAPKLLVHSAYFRATGIPDRFSGSGSRTDFTLTISSLEPEDVGVYHCQQYNDLLPLTFGGGTKVEIN
# B3: KP2-13 Fab/phage clone (anti-Band 3, Wrb) (Fab, V domains shown)
# VH: EVQLLESGPGLVKPSETLSLTCAVSGGSISGGYDWSWIRQSPGKGLEWIGYIYDSRGTTNYNPSLRKRVAISIDTSRNQFSLNLRSLTAADTAVYYCARRAGYGSAYFDYWGQGVLVTVSS
# VL: AAELTQSPATLSLAPGETATLSCRASQSIGTNLAWYHQKPGQPPKLLVHTAYVRATGIPNRFSGSGSRTDFTLTINSLQPEDVGVYHCQQYNDLLPLTFGGGTKIDIK
# B4: KP2-15 Fab/phage clone (anti-Band 3, Wrb) (Fab, V domains shown)
# VH: B3 VH with A70T, N83K
# VL: AAELTQSPATLSVSPGEAATLSCRASQTVGRNLAWYQQKPGQAPKLLVHSAHFRATGIPDRFSGSGSGTDFTLTISSLEPEDAGIYHCQQYNDLLPLTFGGGTKVEIK
# B5: KP2-22 Fab/phage clone (anti-Band 3, Wrb) (Fab, V domains shown)
# VH: EVQLLESGPGLVKPSETLSLTCAVSGDSISSGYGWSWIRQTPGKGLEWIGYIGGSRGNTNYNPSLKSRVTISKDTSKNQFSLKLSSVTAADTAVYYCARRAPYWGYSYLDYWGQGVLVTVSS
# VL: B3 VL with A1E, A2L, E3T, P43S, T50S, N60D, I105V, D106E
# B6: KP2-24 Fab/phage clone (anti-Band 3, Wrb) (Fab, V domains shown)
# VH: EVQLLESGPGLVKPSETLSLTCTVSGYSISSGYGWGWIRQSPGKGLEWIGYFGGSRGNTNYNPSLKSRVTISQDTSKNQFSLKLKSVTAADTGIYYCARDSGYSRRWVDYWGQGVLVTVSS
# VL: B3 VL with I29V, T50S, N60D
# B7: KP2-20 Fab/phage clone (anti-Band 3, Wrb) (Fab, V domains shown)
# VH: B3 VH with A70T, N83K
# VL: B2 VL with E1A, L2A, V3E, M4L, A51G, Y52S, F53V, T74I, N108K
# B8: KP2-08 Fab/phage clone (anti-Band 3, Wrb) (Fab, V domains shown)
# VH: EVQLLESGPGLVKPSETLSLTCAVSGYSISSGYGWNWIRQPPGKGLEWIGSIGGSRDNTNYNPSLKSRVTLSKDTSKNHFSLRLRSVTAADTAVYYCARDGGYGSRYMDSWGQGVLVAVSS
# VL: AAELTQSPATLSLSPGEAATLSCRASQSIGTSLAWYQQKPGQAPRLLVHSAYFRATGIADRFSGSGSRTDFTLTISSLEPEDVGVYYCQQYNDLLPLTFGGGTKVEIK
# B9: KP2-14 Fab/phage clone (anti-Band 3, Wrb) (Fab, V domains shown)
# VH: EVQLLESGPGLVKPSETLSLTCAVSGSSLSSAYGWNWIRQAPGKRLEWIGFIGGSRDNTNYNPSLRSRVTISKDTSKNHFSLKLTSVTAADTAVYFCARRGAFGNSYFDYWGQGVPVTVSS
# VL: B8 VL with A18T, Q27E, I29V, T31S, Q37H, Y52S, A59P, D70E, I75V, Y87H
# B10: KP2-19 Fab/phage clone (anti-Band 3, Wrb) (Fab, V domains shown)
# VH: EVQLLESGPGLVKPSETLSLTCAVSGGSINGGYDWTWIRQSPGKGLQWIGWIYGSRGTTNYNPSLRNRVTISIDTSRNQFSLRLSSLTAADTAVYYCAKRVGYGNSYFDSWGQGVLVTVSS
# VL: ELTLTQSPATLSLSPGERATLSCRASQSVSSRLAWYQQKPGQAPRLLIYDASSRVTGIPDRFSGSGSGTDFTLTISSLEPEDVGVYHCQQYNDLLPLTFGGGTKVEIK
# B11: KP3-16 Fab/phage clone (anti-Band 3, Wrb) (Fab, V domains shown)
# VH: EVQLLESGPGLVKPSETLSLTCTVSGSSLSSAYGWNWIRQPPGKGLEWIGSIGGSRDNTNYNPSLKRRVTISKDTSKNQFSLKLKSVTAADTAVYYCAQRGAYGYSYFDYWGQGVLVAVSS
# VL: AAELTQSPATLSLSPGETATLSCRASQSLGSRLAWYQQKPGQAPRLLIYGASTRATGIPDRFSGSGSRTDFTLTISSLEPEDVGVYHCQQYNDFLPLTFGGGTKVEIK
# B12: KP3-06 Fab/phage clone (anti-Band 3, Wrb) (Fab, V domains shown)
# VH: EVQLLESGPGLVRPSETLSVTCDVSGGSISSASWSWIRQAPGKRLEWIGAISGSGSPTNVNPSLKSRVTLSVDTSKNQLSLKLRSMTAADTAVYYCARRGGYGNRYFDYWGQGVAVTVSS
# VL: B8 VL with A18T, I29V, T31S, R45K, A59P, Y87H
# B13: KP2-11 Fab/phage clone (anti-Band 3, Wrb) (Fab, V domains shown)
# VH: B11 VH with L5Q, E6L, S7P
# VL: B11 VL with A1E, A2L, E3T, A43P, L95P
# B14: KP2-23 Fab/phage clone (anti-Band 3, Wrb) (Fab, V domains shown)
# VH: B11 VH
# VL: B4 VL with A1E, A2L, E3T, V13L, A18T, K39R, K45N, H52Y, I85V
# B15: KP2-09 Fab/phage clone (anti-Band 3, Wrb) (Fab, V domains shown)
# VH: EVQLLESGPGLVRPSETLSLTCAVSGYSISSGYGWHWIRQPPGKGLESLGYIGGSRGNTNYNPSLKSRVTISTDTSKNQFSLKLRSVTAADTAVYYCARDSGYNTRYFDYWGQGVLVTVSS
# VL: B11 VL with T18R, L29V, T53S, F94L
# B16: KP3-02 Fab/phage clone (anti-Band 3, Wrb) (Fab, V domains shown)
# VH: B15 VH
# VL: B2 VL with E1A, L2A, V3E, M4L, N108K
# B17: KP3-08 Fab/phage clone (anti-Band 3, Wrb) (Fab, V domains shown)
# VH: B11 VH
# VL: B11 VL with A1E, A2L, E3T, S31G, D70E, S76A, S77G
# Biological target: T1, Band 3 / glycophorin A (Wright b, Wrb epitope) on human red blood cells (human, UniProt P02724 20-150)
# T1 construct: whole, on cells; also called Band3/GPA; AE1
# T1 sequence 1: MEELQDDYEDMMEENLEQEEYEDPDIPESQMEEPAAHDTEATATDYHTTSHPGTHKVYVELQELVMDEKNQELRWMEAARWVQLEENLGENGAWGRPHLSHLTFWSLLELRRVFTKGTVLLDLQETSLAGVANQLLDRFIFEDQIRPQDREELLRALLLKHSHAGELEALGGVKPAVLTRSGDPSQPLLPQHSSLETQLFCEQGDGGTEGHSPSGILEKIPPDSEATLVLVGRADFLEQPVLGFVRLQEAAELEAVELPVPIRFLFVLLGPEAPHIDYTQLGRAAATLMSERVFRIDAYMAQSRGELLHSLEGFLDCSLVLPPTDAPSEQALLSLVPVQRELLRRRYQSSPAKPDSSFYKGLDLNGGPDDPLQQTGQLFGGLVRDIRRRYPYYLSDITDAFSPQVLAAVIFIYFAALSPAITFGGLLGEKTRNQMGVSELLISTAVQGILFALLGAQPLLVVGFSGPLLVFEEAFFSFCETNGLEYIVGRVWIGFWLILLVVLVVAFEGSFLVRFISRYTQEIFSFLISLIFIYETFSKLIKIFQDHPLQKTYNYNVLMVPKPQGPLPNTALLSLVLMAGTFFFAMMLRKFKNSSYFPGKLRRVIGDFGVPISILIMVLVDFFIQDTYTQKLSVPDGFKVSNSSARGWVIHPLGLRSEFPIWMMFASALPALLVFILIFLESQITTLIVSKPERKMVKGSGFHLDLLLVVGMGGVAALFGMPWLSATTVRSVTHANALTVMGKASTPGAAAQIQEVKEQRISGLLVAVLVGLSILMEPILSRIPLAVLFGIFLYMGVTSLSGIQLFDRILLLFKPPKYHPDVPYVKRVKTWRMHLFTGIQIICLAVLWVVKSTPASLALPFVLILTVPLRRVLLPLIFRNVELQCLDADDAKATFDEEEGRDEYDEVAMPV
# T1 sequence 2: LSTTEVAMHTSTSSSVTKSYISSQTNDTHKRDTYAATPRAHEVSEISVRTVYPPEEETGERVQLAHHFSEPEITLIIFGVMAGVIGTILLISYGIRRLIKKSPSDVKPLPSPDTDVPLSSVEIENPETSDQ
# Test: Fab/phage binding assays on human RBCs incl. rare RBC types lacking conserved antigens
# Description: An IgG Fab/phage display library was prepared from the peripheral blood lymphocytes of a hyperimmunized macaque using homologous human V-region oligonucleotides (Siegel D L, R. M., Lee H, Blancher A., Production of large repertories of macaque mAbs to human RBCs using phage display. Transfusion, 1999. 39(S10): p. 92S, which is incorporated herein by reference). Fab/phage specific for human RBCs were isolated by panning on intact human RBCs. Monoclonal Fab/phage were grown to produce antibodies for immunoassays and their corresponding DNA was extracted for sequencing. To identify target epitopes, antibodies were screened against RBCs of known serologic phenotypes, including rare cells lacking highly conserved antigens, using standard immunohematologic techniques (Roback, J. D., Technical Manual. 2014: American Association of Blood Banks (AABB), which is incorporated herein by reference.)
# Using antibody phage display, we identified non-human-primate Fab antibody fragments to antigenic determinants on human RBCs. By panning phage libraries on human RBCs, we produced a Fab/phage preparation with >10⁷ RBC-specific clones capable of agglutinating human RBCs. By performing binding assays against rare RBC types lacking highly conserved antigens and epitopes, we identified the target antigens of >30 of these clones. At least 34 clones bound the Wright b (Wrb) epitope formed by a Band 3/GPA interaction, present on the RBCs of essentially 100% of the human population. The Wrb epitope, determined by the protein sequence of Band 3, is a site of association between Band 3 with GPA, and GPA expression is simultaneously required for its presence on the membrane (Huang C H, Reid M E, Xie S S, Blumenfeld 00. Human red blood cell Wright antigens: a genetic and evolutionary perspective on glycophorin A-band 3 interaction. Blood. 1996; 87(9):3942-3947). At least 3 other clones bound to a highly-conserved epitope Rh17(Hr0) on human RhCE protein, also present on essentially 100% of the human population. Both these targets are specific for erythroid lineage (Rojewski M T, Schrezenmeier H, Flegel W A. Tissue distribution of blood group membrane proteins beyond red cells: evidence from cDNA libraries. Transfus Apher Sci.
row,Binder,binding result
1,B1,binds
2,B2,binds
3,B3,binds
4,B4,binds
5,B5,binds
6,B6,binds
7,B7,binds
8,B8,binds
9,B9,binds
10,B10,binds
11,B11,binds
12,B12,binds
13,B13,binds
14,B14,binds
15,B15,binds
16,B16,binds
17,B17,binds
